In the supplement of paper PMC7125110:
± gives the standard error. This sample holds only a part of the variants without activity.

B1: glmS ribozyme (parent)
chain: AUAAAAGCGCCAGAACUACAGAAAUGUAGUUGACGAGGAGGAGGUUUAUCGAAUUUUCGGCGGAUGCCUCCAAA

Legend:
Conditions in all cases: with glucosamine-6-phosphate
glucosamine-6-phosphate [1] = variants of: B1; assay: self-cleavage kobs at 640 uM GlcN6P; higher = faster cleavage; RNA array
Outline: (§1)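 A hybridised Cy3 probe tracked barcoded ribozyme variants, transcribed in situ by E. coli RNA polymerase on sequenced MiSeq chips, at 37 °C. The variants received 40 μM to 10 mM glucosamine-6-phosphate in HEPES/KCl/Mg(OAc)2 buffer. kobs came from decay fits and kcat and KM from weighted Michaelis–Menten fits.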

glucosamine-6-phosphate [2] = variants of: B1; assay: self-cleavage kobs at 2500 uM GlcN6P; higher = faster cleavage; RNA array
Outline: as §1

glucosamine-6-phosphate [3] = variants of: B1; assay: self-cleavage kobs at 10000 uM GlcN6P; higher = faster cleavage; RNA array
Outline: as §1

| Variant | self-cleavage kobs at 640 uM GlcN6P (glucosamine-6-phosphate [1]) [s⁻¹] | self-cleavage kobs at 2500 uM GlcN6P (glucosamine-6-phosphate [2]) [s⁻¹] | self-cleavage kobs at 10000 uM GlcN6P (glucosamine-6-phosphate [3]) [s⁻¹] |
| --- | --- | --- | --- |
| AUAAAAGCGCCAGAACUACAGAAAUGUAGUUGAUGAAGGGGAGGUUUAUCGAAUUUUCGGCGGAUGCCUCCAAA [C34U G37A A39G] | < 1e-05 | < 1e-05 |  |
| AUAAAAGCGCCAGAACUACAGAAAUGUAGUUGACGAGGACGAGGUUUAUCGAAUUUUCGGCGGAUGGCUGCAAA [G40C C67G C70G] | < 1e-05 |  | < 1e-05 |
| AUAAAAGCGCCAGAACUACAGAAAUGUAGUUGACGCGGCGGAGGUUUAUCGAGUUUUCGGCGGAUGCCUCCAAA [A36C A39C A53G] | < 1e-05 | < 1e-05 |  |
| AUAAAAGCGCCAGAACUACAGAAAUGUAGUUGACGAAGAGGAGGCUUAUCGAAUUUUCGGCGGAUGCCUCCAAA [G37A U45C] | 5.03e-05 ± 1.6e-05 | 6.95e-05 ± 1.3e-05 | 0.000173 ± 4.9e-05 |
| AUAAAAGCGCCAGAACUACAGAAAUGUACUUGACGAGGAGGAUGUUUAUCGAAUUUUCGGCGGUUGCGUCCAAA [G29C G43U A64U C68G] | < 1e-05 |  |  |
| AUAAAAGCGACAGAACUACAGAAAUGUAGCUGACGAUGAGGAGGUUUAUCGAAUUUUCGGCGGAUGCCUCCAAA [C10A U30C G37U] | < 1e-05 |  |  |
| AUAAAAGCGCCAGAACUACAGAAAUGUAGUUGACGAGGUGGAGGUUUAUCGACUUUUCGGCGGAUGCCUCAAAA [A39U A53C C71A] | 8.85e-05 ± 1.7e-05 | 0.000186 ± 5.3e-05 |  |
| AUAAAAGCGCCAGAACUACAGAAAUGUAGUUGACGAGGAGGAGGUUUAUCGAAUUUUCGGCGUACGCCUCCAAA [G63U U65C] | < 1e-05 | < 1e-05 |  |
| AUAAAAGCGCCAGAACUACAGAAAUGUAGUUGACGAGGAGGAGGUUUACAGAAUUUUCGGCGGAUGCCUACAAA [U49C C50A C70A] | 7.42e-05 ± 3.6e-05 |  |  |
| AUAAAAGCGUCAAAACUACAGAAAUGUAAUUGACGAGGAGAAGGUUUAUCGAAUUUUCGGCGGAUGCCUCCAAA [C10U G13A G29A G41A] | < 1e-05 |  |  |
| AUAAAAGCGCAAUAACUACAGAAAUGUAGUAAACGAGGAGGAGGUUGAUCGAAUUUUCGGCGGAUGCCUCCAAA [C11A G13U U31A G32A U47G] | < 1e-05 |  |  |
| AUAAAAGUGCAAGAACUACAGAAAUGUAGUUGACGAGGAGGAGGUUUAUCGAAUUUUCGGCGGAUGCCUCCAAA [C8U C11A] | < 1e-05 |  | < 1e-05 |
| AUAAAAGCGCCAGAACUACAGAAAUGUAGUUGACUAGGAAGAGGUUUAUCGUAUUUUCGGCGGAUGCCUCCAAA [G35U G40A A52U] | < 1e-05 | < 1e-05 |  |
| AUAAAAGCGCCAGAACUACAGAAAUGUAGUUGACGAGGAGGAGGUUAAUCGAAUUUUCGGAGGAUGGCUCAAAA [U47A C61A C67G C71A] | < 1e-05 | < 1e-05 |  |
| AUAAAAGUGCCAGAACUACAGAAAUGUAGUUGACGAGGAGGAAGUUUAUCGAAUUUUGGGCGGAUGCCUCCAAA [C8U G43A C58G] | < 1e-05 | < 1e-05 |  |
| AUAAAAGCGCCAGACCUACAGAAAUGUAGUUGACGACGAGGAGGUUUAUCGAAUUUUCGGCGGAUGCCUUCAAA [A15C G37C C70U] | < 1e-05 |  |  |
| AUAAACGCGCCAGAACUACAGAAAUGUAGUUGACGAGGAGGAGGUUUAUCGAAUUUUCGGCGGAUGCCGCCAAA [A6C U69G] | 0.000265 ± 0.00011 |  |  |
| AUAAAAGCGCCAGAACUACAGAAAUGUAGUUGACGAGGGGGAGGUUGAUCGAAUUUUCCGCGGAUGCCUCCAAA [A39G U47G G59C] | < 1e-05 |  |  |
| AUAAAGGCGCCAGAACUACAGAAAUGUAGAUGACGAGGAGAAGGUUUAUCGAAUUUUCGGCGGAUGCUUCCAAA [A6G U30A G41A C68U] | < 1e-05 |  |  |
| AUAAAAGCGCCAGAACUACAGAAAUGUAGUUGACGAGGAGGAGGUUUAUCGAAUUUACGGCGUAUGCCUCCAAA [U57A G63U] | < 1e-05 |  |  |
| AUAAACGCGCCAGAAUUACAGAAAUGUAGUUGACGAGGACGAGGUUCAUCGAAUUUUCGUCGGAUGCCUCCAAA [A6C C16U G40C U47C G60U] | < 1e-05 | < 1e-05 |  |
| AUAAAGACGUCAGAACUACAGAAAUGUAGUUGACGAGGAGGAGCUUUAUCGAAUUUUCGCCGGAUGCCUCCAAA [A6G G7A C10U G44C G60C] | < 1e-05 | < 1e-05 |  |
| AUAAAAGCGCCAGAACUACAGAAAUGUAGUUGACGAGGAGGCUGUUUAUCGAAUUUUCGGCGGAUGCCUUCAAA [A42C G43U C70U] | < 1e-05 | < 1e-05 |  |
| AUAAAAGCGCCAGAACUACAGAAAUGUAGUUCGCGAGGAGGAGGUUAAUCGAACUUUCGGCGGCUGCCUCUAAA [G32C A33G U47A U54C A64C C71U] | < 1e-05 | < 1e-05 |  |

| Variant | self-cleavage kobs at 640 uM GlcN6P (glucosamine-6-phosphate [1]) [s⁻¹] | self-cleavage kobs at 2500 uM GlcN6P (glucosamine-6-phosphate [2]) [s⁻¹] | self-cleavage kobs at 10000 uM GlcN6P (glucosamine-6-phosphate [3]) [s⁻¹] |
| --- | --- | --- | --- |
| AUAAAAGCGCCAGAAUUACAGAAAUGUAGUUGACGAGGAGGUGGUUUAUCGAAUUUUACCCGGAUGCCUCCAAA [C16U A42U C58A G59C G60C] | < 1e-05 |  |  |
| AUAAAAGCGCCAGAACUACAGAAAUGUAGUUGACGAGGCGGAGGUUUAUCAAAUUUUCGGCGGGUGCCUCCAAA [A39C G51A A64G] | < 1e-05 |  |  |
| AUAAAAGCGCGAGAACUACAGAAAUGUAGUUGACGAGGAGGAGGUUUAUCGAAUUUUAGGCGGAUGCAUCCAAA [C11G C58A C68A] | 0.000165 ± 6.6e-05 |  |  |
| AUAAAAGCGCCAGAACUACAGAAAUGUAGUUGACGAGGAGGGGGUUUAUCGAAUUUUCGGCGGGUGCCUACAAA [A42G A64G C70A] | 4.59e-05 ± 2.2e-05 | 0.000247 ± 6.8e-05 |  |
| AUAAAAGCGCAAGAACUACAGAAAUGUAGUUGACGAGGAGGCGGUCUAUCGAAUUUUCGGCGGAUGCCUCUAAA [C11A A42C U46C C71U] | < 1e-05 |  |  |
| AUAAAAGCACCAGAACUACAGAAAUGUAGUUGACGAGAAGGGGGUUUAUCGAAUUUUCGGCGGAUGCCGUAAAA [G9A G38A A42G U69G C70U C71A] | < 1e-05 |  |  |
| AUAAAAGCGCCUGAACUACAGAAAUGUAGUUGACGAGGAGGAGGUUUAUUGAAUUUUCGGCGGAUGCCUCCAAA [A12U C50U] | 4.86e-05 ± 1.1e-05 | 9.52e-05 ± 1.7e-05 | 0.00036 ± 4.5e-05 |
| AUAAAAGCGCUAGAACUACAGAAAUGUAGUUGACGAAGAGGAGGUUUAUCGAAUUUGCGGCGAAUGCCUCCAAA [C11U G37A U57G G63A] | < 1e-05 |  |  |
| AUAAAAGCGCCAGAACUACAGAAAUGUAGUUGACGAGCAGGAAGUUUAUCGAAUUUUCGGCGGGUGCCUCCAAA [G38C G43A A64G] | < 1e-05 |  |  |
| AUAAAAGCGCCCGAACUACAGAAAUGUAGUUGACGAGGAGGAGGUUUAUCGAAUUUUCGGCGGAUGAAUCCAAA [A12C C67A C68A] | 7.04e-05 ± 1.6e-05 | 4.41e-05 ± 2.1e-05 |  |
| AUAAAAGCGCCAGUACUACAGAAAUGUAGGUGACGAGGAGGAGGUUUAUCGAACUUUCGGCGGAUGCCUCCAAA [A14U U30G U54C] | 0.000624 ± 0.00011 | 0.00185 ± 0.00046 |  |
| AUAAAAGCGCCAGAACUACAGAAAUGUAGGUGACGAGGAGGAGGUUUAUCGAAAUUUCGGCGGAUGGCUCCAAA [U30G U54A C67G] | 0.000105 ± 2.2e-05 |  |  |
| AUAAAAGCGCCAGAACUACAGAAAUGUAUUGGACGAGGAGGAGGUUGAUCGAAUUUUCGGCGGAUGCCUCAAAA [G29U U31G U47G C71A] | 9.8e-05 ± 3.6e-05 |  |  |
| AUAAAGGCGCCAGCACUACAGAAAUGUAGUUGAUGAGGAGGAGGUUUAUCGAAUUUUCGGCGGAUGCCUCCAAA [A6G A14C C34U] | < 1e-05 |  |  |
| AUAAAAGCGCCAGAACUACAGAAAUGUAGUUGACGAGGAGUAGGAUUAUCCAAUUUUGGGCGGAUGCCUCCAAA [G41U U45A G51C C58G] | < 1e-05 | < 1e-05 |  |
| AUAAAAACGCCAGAACUACAGAAAUGUAGUUGACGAGGUGGAGGUUUCUCGAAUUUUCGGCGGAUGCCUCCAAA [G7A A39U A48C] | < 1e-05 | < 1e-05 |  |
| AUAAAAGCGCCAGGACUACAGAAAUGUAGUUGACGAGGAGGAGGUUUAUCGAAUUUUCGGCGGAUGUCUCUAAA [A14G C67U C71U] | 0.000875 ± 0.00018 | 0.00249 ± 0.00091 |  |
| AUAAAAGCGCCAGAACUACAGAAAUGUAGUUGACGAGGACUAUGUUUAUCGAAUUUUCGGCGGAUGCCUCCAAA [G40C G41U G43U] | < 1e-05 | < 1e-05 |  |
| AUAAAAGCUCCAGAACUACAGAAAUGUAGUUCGCGAGGGGGAGGUUUUUCGAAUUUUCGGUGUUUGCCUCCAAA [G9U G32C A33G A39G A48U C61U G63U A64U] | < 1e-05 | < 1e-05 |  |
| AUAAAAGCGCGAGACCUACAGAAAUGUAGUUUCCGAGGAGGAGGUUUAUUGAAUUUUCGGCGGAUGCCUCAAAA [C11G A15C G32U A33C C50U C71A] | 0.000149 ± 4e-05 |  |  |
| AUAAAAGGGCCAGAACUACAGAAAUGUAGUUGACGAGUAGAAGGUGUAUCGAAUUUUCAGCGGAUGCCUCCAAA [C8G G38U G41A U46G G59A] | < 1e-05 | < 1e-05 |  |
| AUAAAAGCGCCAGAAUUACAGAAAUGUAGUUGACGAGGUGGAGGUUUUUCGAAUUUUCGGCGGAUGCCUCCAAA [C16U A39U A48U] | 3.71e-05 ± 1.6e-05 | 7.54e-05 ± 1.5e-05 |  |
| AUAAAAGCGCCAGAACUACAGAAAUGUACUUGACGAGGAGGGUGUUUAUCCAAUUUUCGGCCGAUGCCUCCAAA [G29C A42G G43U G51C G62C] | < 1e-05 |  |  |
